Reference: the Immune Epitope Database (IEDB)

Experiments:
[1] = biological target: HLA-B*73:01; experiment: IEDB peptide-MHC binding, purified MHC/competitive/fluorescence; filed as Kd, often an IC50 or EC50 that approximates it; ≥ and ≤ were set here for values at or beyond the usual limits of such assays; conditions: source organism: Clostridium novyi NT
[2] = biological target: HLA-A*11:01; experiment: IEDB peptide-MHC binding, purified MHC/direct/fluorescence; filed as Kd, often an IC50 or EC50 that approximates it; ≥ and ≤ were set here for values at or beyond the usual limits of such assays
[3] = biological target: HLA-A*31:01; experiment: IEDB peptide-MHC binding, purified MHC/competitive/fluorescence; filed as Kd, often an IC50 or EC50 that approximates it; ≥ and ≤ were set here for values at or beyond the usual limits of such assays
[4] = biological target: HLA-B*07:02; experiment: as above; conditions: source organism: Mycobacterium tuberculosis variant bovis BCG str. Pasteur 1173P2
[5] = biological target: HLA-A*02:19; experiment: as above
[6] = biological target: HLA-A*02:12; experiment: as above
[7] = biological target: HLA-A*02:11; experiment: as above
[8] = biological target: HLA-A*02:03; experiment: as above
[9] = biological target: HLA-A*03:01; experiment: IEDB peptide-MHC binding, purified MHC/direct/fluorescence; filed as Kd, often an IC50 or EC50 that approximates it; ≥ and ≤ were set here for values at or beyond the usual limits of such assays; conditions: source organism: Escherichia coli O157:H7 str. EC869
[10] = biological target: HLA-A*02:01; experiment: as above; conditions: source organism: Escherichia coli O157:H7 str. EC869
[11] = biological target: HLA-A*26:01; experiment: as above; conditions: source organism: Escherichia coli O157:H7 str. EC869
[12] = biological target: HLA-A*68:02; experiment: as above; conditions: source organism: Escherichia coli O157:H7 str. EC869
[13] = biological target: HLA-B*07:02; experiment: as above; conditions: source organism: Escherichia coli O157:H7 str. EC869
[14] = biological target: HLA-A*02:19; experiment: as above; conditions: source organism: Escherichia coli O157:H7 str. EC869
[15] = biological target: HLA-A*69:01; experiment: as above; conditions: source organism: Escherichia coli O157:H7 str. EC869
[16] = biological target: HLA-B*46:01; experiment: as above; conditions: source organism: Escherichia coli O157:H7 str. EC869
[17] = biological target: HLA-A*02:12; experiment: as above; conditions: source organism: Escherichia coli O157:H7 str. EC869
[18] = biological target: HLA-A*02:16; experiment: as above; conditions: source organism: Escherichia coli O157:H7 str. EC869
[19] = biological target: HLA-A*02:11; experiment: as above; conditions: source organism: Escherichia coli O157:H7 str. EC869
[20] = biological target: HLA-A*02:03; experiment: as above; conditions: source organism: Escherichia coli O157:H7 str. EC869
[21] = biological target: HLA-B*39:01; experiment: as above; conditions: source organism: Escherichia coli O157:H7 str. EC869
[22] = biological target: HLA-B*15:01; experiment: as above; conditions: source organism: Escherichia coli O157:H7 str. EC869
[23] = biological target: HLA-B*27:03; experiment: as above; conditions: source organism: Escherichia coli O157:H7 str. EC869
[24] = biological target: HLA-B*57:01; experiment: as above; conditions: source organism: Escherichia coli O157:H7 str. EC869
[25] = biological target: HLA-B*35:01; experiment: as above; conditions: source organism: Escherichia coli O157:H7 str. EC869
[26] = biological target: HLA-B*51:01; experiment: as above; conditions: source organism: Escherichia coli O157:H7 str. EC869
[27] = biological target: HLA-A*02:01; experiment: IEDB peptide-MHC binding, purified MHC/competitive/fluorescence; filed as Kd, often an IC50 or EC50 that approximates it; ≥ and ≤ were set here for values at or beyond the usual limits of such assays
[28] = biological target: HLA-A*02:06; experiment: as above
[29] = biological target: HLA-A*69:01; experiment: as above; conditions: source organism: Human immunodeficiency virus type 1 (ELI ISOLATE)
[30] = biological target: HLA-A*02:16; experiment: as above
[31] = biological target: HLA-A*24:03; experiment: as above
[32] = biological target: HLA-A*03:01; experiment: as above
[33] = biological target: HLA-A*29:02; experiment: as above; conditions: source organism: Salmonella enterica subsp. enterica serovar Paratyphi A str. AKU_12601
[34] = biological target: HLA-A*26:01; experiment: as above
[35] = biological target: HLA-B*46:01; experiment: as above
[36] = biological target: HLA-B*39:01; experiment: as above
[37] = biological target: HLA-B*15:01; experiment: as above
[38] = biological target: HLA-B*27:03; experiment: as above
[39] = biological target: HLA-B*57:01; experiment: as above
[40] = biological target: HLA-B*15:17; experiment: as above; conditions: source organism: Salmonella enterica subsp. enterica serovar Paratyphi A str. AKU_12601
[41] = biological target: HLA-B*18:01; experiment: as above
[42] = biological target: HLA-B*51:01; experiment: as above
[43] = biological target: HLA-B*15:02; experiment: as above
[44] = source organism: Mycobacterium tuberculosis variant bovis BCG str. Pasteur 1173P2
[45] = source organism: Human immunodeficiency virus type 1 (ELI ISOLATE)
[46] = source organism: Salmonella enterica subsp. enterica serovar Paratyphi A str. AKU_12601
[47] = source organism: Vibrio cholerae 2740-80
[48] = source organism: Giardia lamblia ATCC 50803
[49] = source organism: Escherichia coli ATCC 8739

Question: How did the Kd [1] turn out when SRDYYRHKV was run?
Answer: 3.62 µM

Question: What does the source list for SYYCAGLKK?
Answer: Kd ([2]; source organism: Dengue virus 1 Singapore/S275/1990): 80.1 nM; Kd ([3]; source organism: dengue virus type 1): 1960 nM

Question: For SLYEKSGSV, which Kd [4] is on record?
Answer: ≥ 20 µM

Question: What about the Kd [5, 44] of the same sequence?
Answer: 130 nM

Question: What about the Kd [6, 44] of the same sequence?
Answer: 34.1 nM

Question: And the Kd [7, 44]?
Answer: 1.1 nM

Question: What about the Kd [8, 44] of the same sequence?
Answer: ≤ 0.001 µM

Question: What does the source list for YGSWFGLIY?
Answer: Kd [9]: ≥ 20 µM; Kd [10]: ≥ 20 µM; Kd [11]: ≥ 20 µM; Kd [12]: ≥ 20 µM; Kd [13]: ≥ 20 µM; Kd [14]: ≥ 20 µM; Kd [15]: ≥ 20 µM; Kd [16]: ≥ 20 µM; Kd [17]: ≥ 20 µM; Kd [18]: ≥ 20 µM; Kd [19]: ≥ 20 µM; Kd [20]: ≥ 20 µM; Kd [21]: ≥ 20 µM; Kd [22]: 180 nM; Kd [23]: ≥ 20 µM; Kd [24]: ≥ 20 µM; Kd [25]: 6 nM; Kd [26]: ≥ 20 µM

Question: LTYRHKVVK was tested. Which Kd ([2]; source organism: West Nile virus) did it give?
Answer: 29.8 nM

Question: And the Kd ([3]; source organism: Japanese encephalitis virus)?
Answer: 23.9 nM

Question: With SLGQHIYET as the sequence, how does the Kd [27, 45] read?
Answer: 12 nM

Question: And the Kd [28, 45]?
Answer: 11 nM

Question: What about the Kd [5, 45] of the same sequence?
Answer: 84 nM

Question: What about the Kd [29] of the same sequence?
Answer: ≥ 20 µM

Question: What about the Kd [6, 45] of the same sequence?
Answer: 22.5 nM

Question: And the Kd [30, 45]?
Answer: 0.006 µM

Question: And the Kd [8, 45]?
Answer: 0.0065 µM

Question: Which results are given for AMDTHLYFE?
Answer: Kd [31, 46]: ≥ 20 µM; Kd [32, 46]: ≥ 20 µM; Kd [33]: ≥ 20 µM; Kd [27, 46]: ≥ 20000 nM; Kd [34, 46]: ≥ 20 µM; Kd [5, 46]: ≥ 20000 nM; Kd [35, 46]: ≥ 20 µM; Kd [6, 46]: 284 nM; Kd [7, 46]: 53.9 nM; Kd [8, 46]: ≥ 20 µM; Kd [36, 46]: ≥ 20 µM; Kd [37, 46]: ≥ 20 µM; Kd [38, 46]: ≥ 20 µM; Kd [39, 46]: ≥ 20 µM; Kd [40]: ≥ 20 µM; Kd [41, 46]: ≥ 20 µM; Kd [42, 46]: ≥ 20 µM

Question: What does the source list for IFIRTIYYH?
Answer: Kd [31, 47]: ≥ 20 µM; Kd [32, 47]: ≥ 20 µM; Kd [27, 47]: ≥ 20000 nM; Kd [34, 47]: ≥ 20 µM; Kd [5, 47]: ≥ 20000 nM; Kd [35, 47]: ≥ 20 µM; Kd [6, 47]: ≥ 20000 nM; Kd [30, 47]: ≥ 20 µM; Kd [7, 47]: ≥ 20000 nM; Kd [8, 47]: ≥ 20 µM; Kd [36, 47]: ≥ 20 µM; Kd [37, 47]: ≥ 20 µM; Kd [38, 47]: ≥ 20 µM; Kd [39, 47]: ≥ 20 µM; Kd [41, 47]: ≥ 20 µM; Kd [42, 47]: ≥ 20 µM

Question: For HMLVVIRKY, which Kd ([43]; source organism: Clostridium botulinum A str. ATCC 3502) is on record?
Answer: 194 nM

Question: How did the Kd ([43]; source organism: Yersinia pestis CO92) turn out when ILRDGQRWY was run?
Answer: 55.2 nM

Question: With MARPADASM as the sequence, how does the Kd [31, 48] read?
Answer: ≥ 20 µM

Question: What about the Kd [32, 48] of the same sequence?
Answer: ≥ 20 µM

Question: And the Kd [27, 48]?
Answer: ≥ 20000 nM

Question: And the Kd [34, 48]?
Answer: ≥ 20 µM

Question: What about the Kd [5, 48] of the same sequence?
Answer: ≥ 20000 nM

Question: What about the Kd [35, 48] of the same sequence?
Answer: 2.2 µM

Question: And the Kd [6, 48]?
Answer: ≥ 20000 nM

Question: And the Kd [30, 48]?
Answer: ≥ 20 µM

Question: What about the Kd [7, 48] of the same sequence?
Answer: ≥ 20000 nM

Question: And the Kd [8, 48]?
Answer: ≥ 20 µM

Question: And the Kd [36, 48]?
Answer: ≥ 20 µM

Question: What about the Kd [38, 48] of the same sequence?
Answer: ≥ 20 µM

Question: What about the Kd [39, 48] of the same sequence?
Answer: 0.121 µM

Question: And the Kd [41, 48]?
Answer: ≥ 20 µM

Question: How did the Kd ([43]; source organism: Shigella dysenteriae Sd197) turn out when QLLDFLLAY was run?
Answer: 55.8 nM

Question: For GLYQGIVGF, which Kd ([43]; source organism: Rickettsia prowazekii str. Madrid E) is on record?
Answer: 59.6 nM

Question: How did the Kd [27, 49] turn out when GLLDWGMQQ was run?
Answer: 119 nM

Question: What about the Kd [28, 49] of the same sequence?
Answer: 1550 nM

Question: How did the Kd ([43]; source organism: Shigella flexneri) turn out when FILSGRFSY was run?
Answer: 396 nM
